Reference: article doi:10.1101/2022.11.10.516034 (bioRxiv, 2022)
Where two headings read alike, the source gives them in different places.

How the values were obtained:
SEC [1] = target: the molecule itself; assay: SEC
SEC [2] = target: the molecule itself; assay: SEC; remark: listed apart in the source

| Protein | stoichiometry N (SEC [1]) [subunit] | stoichiometry N (SEC [2]) |
| --- | --- | --- |
| Twinkle C-terminal domain with linker (CTD, amino acids 360-684) (domain or fragment, human, UniProt Q96RR1 360-684, looked up) LPAWHKSIVSFRQLREEVLGELSNVEQAAGLRWSRFPDLNRILKGHRKGELTVFTGPTGSGKTTFISEYALDLCSQGVNTLWGSFEISNVRLARVMLTQFAEGRLEDQLDKYDHWADRFEDLPLYFMTFHGQQSIRTVIDTMQHAVYVYDICHVIIDNLQFMMGHEQLSTDRIAAQDYIIGVFRKFATDNNCHVTLVIHPRKEDDDKELQTASIFGSAKASQEADNVLILQDRKLVTGPGKRYLQVSKNRFDGDVGVFPLEFNKNSLTFSIPPKNKARLKKIKDDTGPVAKKPSSGKKGATTQNSEICSGQAPTPDQPDTSKRSK | ~12 | – |
| full-length (FL) human Twinkle (aa 43-684) (enzyme, UniProt Q96RR1 43-684, looked up) ETLQALDMPVLPVTATEIRQYLRGHGIPFQDGHSCLRALSPFAESSQLKGQTGVTTSFSLFIDKTTGHFLCMTSLAEGSWEDFQASVEGRGDGAREGFLLSKAPEFEDSEEVRRIWNRAIPLWELPDQEEVQLADTMFGLTKVTDDTLKRFSVRYLRPARSLVFPWFSPGGSGLRGLKLLEAKCQGDGVSYEETTIPRPSAYHNLFGLPLISRRDAEVVLTSRELDSLALNQSTGLPTLTLPRGTTCLPPALLPYLEQFRRIVFWLGDDLRSWEAAKLFARKLNPKRCFLVRPGDQQPRPLEALNGGFNLSRILRTALPAWHKSIVSFRQLREEVLGELSNVEQAAGLRWSRFPDLNRILKGHRKGELTVFTGPTGSGKTTFISEYALDLCSQGVNTLWGSFEISNVRLARVMLTQFAEGRLEDQLDKYDHWADRFEDLPLYFMTFHGQQSIRTVIDTMQHAVYVYDICHVIIDNLQFMMGHEQLSTDRIAAQDYIIGVFRKFATDNNCHVTLVIHPRKEDDDKELQTASIFGSAKASQEADNVLILQDRKLVTGPGKRYLQVSKNRFDGDVGVFPLEFNKNSLTFSIPPKNKARLKKIKDDTGPVAKKPSSGKKGATTQNSEICSGQAPTPDQPDTSKRSK | – | ~7 |
